Source: US20210061900A1 (ASTUTE MEDICAL, published 2021)
Numbering of substitutions follows the chain as printed.

Legend:
[1] = target: T1, C-C motif chemokine 14 (CCL14), human (human, UniProt Q16627 20-93); assay: lateral flow sandwich, CCL14 5 ng/mL; labelled conjugate, with 2H3/2K1 on the strip
T1 construct: Residues 20-93 are the mature CCL14 it describes, with signal peptide 1-19; also called HCC-1; NCC-2
T1 sequence: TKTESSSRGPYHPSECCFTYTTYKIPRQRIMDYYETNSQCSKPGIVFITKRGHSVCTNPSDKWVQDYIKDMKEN
Protocol: (§1) Various antibodies of the invention were tested for their ability to form sandwich complexes in a lateral flow format. Urine was used as a sample matrix for CCL14 antigen standards. One member of the antibody pair (the “strip” antibody) was immobilized onto a nitrocellulose membrane, and the other member of the antibody pair was prepared as a labeled conjugate with a label that is detectable by the ASTUTE 140® meter system for reading to the test strip.
(§2) To further understand the ability of the antibodies of the present invention to pair, a matrix of various antibodies was analyzed at a single CCL14 concentration of 5 ng/mL in a 100 μL sample volume. The solid phase “strip” antibody was applied to nitrocellulose in 3 μL of a 0.25 μg/mL solution. The conjugate was mixed with the sample volume to a concentration of 10 μg/mL.

[2] = target: T1, C-C motif chemokine 14 (CCL14), human; assay: binding to arrays of CCL14-derived peptides (epitope mapping)
Protocol: Antibodies were diluted in buffer and applied to the peptide library array. Each antibody tested was optimized for the array by testing different blocking conditions and sample concentration. […] Epitope mapping was precluded in the case of antibodies showing high binding signals throughout the array.

[3] = target: T1, C-C motif chemokine 14 (CCL14), human; assay: lateral flow sandwich, CCL14 5 ng/mL; strip antibody, with 4H1/4K3 conjugate
Protocol: as §1, §2

B1: 17H2/17K1 (antibody, V domains shown)
VH: QSVKESEGGLFKPADTLTLTCTVSGFSLSSYAINWVRQAPGEGLEYIGWISDVGTAYYASWAKSRSTITRNTDENTVTLKMTSLTAADTATYFCAGGDGSYSNYWVSDIWGQGTLVTVSS
VL: AVVLTQTASPVSAPVGGTVTVKCQASQTINSRLAWYQQKQGQPPKLLIYEASTLASGVPSRFKGSGSGTEYTLTIRGVECADAATYSCQEYADENIFGGGTEVVVK
notes: Rabbit monoclonal IgG expressed in HEK cells; Used as a labelled conjugate; also called 17H2 heavy chain / 17K1 light chain
binding result [1]: binds

B2: 4H1/4K3 (antibody, V domains shown)
VH: B1 VH with Y31F, V77A
VL: B1 VL with S31N, T53K
notes: Rabbit monoclonal IgG expressed in HEK cells; Used as a labelled conjugate; also called 4H1 heavy chain / 4K3 light chain
binding result [1]: binds

B3: 10H3/10K1 (antibody, V domains shown)
VH: B1 VH
VL: B1 VL with A8P, P10L, Q24R, T53K
notes: Rabbit monoclonal IgG expressed in HEK cells; also called 10H3 heavy chain / 10K1 light chain
binding result [2]: binds

B4: 19H2/19K3 (antibody, V domains shown)
VH: B1 VH with Y31F, T72A
VL: B1 VL with S31N, T53K
notes: Rabbit monoclonal IgG expressed in HEK cells; also called 19H2 heavy chain / 19K3 light chain
binding result [1]: binds

B5: 2H3/2K1 (antibody, V domains shown)
VH: QEQLKESGGGLVQPGGSLKLSCKASGFAFSSDYMSWVRQAPGKGLEWIGYIDPIFGSTAYASWVNGRFTISSHNAQNTLYLHLNSLTAADTATYFCARDKDYSSGWGGYFNLWGQGTLVTVSS
VL: AIVMTQTPASVEAAVGGTVTIKCQASQSINSYLAWYQQKPGQPPRLLIYEASTLASGVPSRFKGSGSGTQFTLTISDLECADAATYYCQTYYYSVDSSVGSNAFGGGTEVVVK
notes: Rabbit monoclonal IgG expressed in HEK cells; also called 2H3 heavy chain / 2K1 light chain
binding result [3]: binds

B6: 3H1/3K1 (antibody, V domains shown)
VH: QSVRESEGGLFKPADTLTLTCTVSGFSLSSDAISWVRQAPGNGLEWIGAIDFGGSAYYASWAKSRSTITRNTNENTVTLKMTSLTAADTATYFCARSPSFGIVDRLDLWGQGTLVTVSS
VL: AVVLTQTASPVSAPVGGTVTIKCQASEDIDSYLAWYQQKPGQPPKLLIYDVFDLSSGVPSRFKGSGSGTEFTLTISDLECADAATYYCQSYYYVLGTTSTDHNSFGGGTEVVVK
notes: Rabbit monoclonal IgG expressed in HEK cells; also called 3H1 heavy chain / 3K1 light chain
binding result [3]: binds

B7: 31H1/31K1 (antibody, V domains shown)
VH: B6 VH
VL: B6 VL
notes: Rabbit monoclonal IgG expressed in HEK cells; also called 31H1 heavy chain / 31K1 light chain
binding result [3]: binds

B8: 12H2/12K1 (antibody, V domains shown)
VH: B6 VH
VL: B6 VL
notes: Rabbit monoclonal IgG expressed in HEK cells; also called 12H2 heavy chain / 12K1 light chain
binding result [3]: binds

B9: 25H2/25K1 (antibody, V domains shown)
VH: QSLEESGGDLVKPGASLTLTCTASRFDFSSAYYMCWVRQAPGKGLEWIACIYAGSSGGTYYATWAKGRFTISKTSSTTVTLQLTSLTAADTATYFCAGSTGNSRGSYFNLWGQGTLVTVSS
V domain: AQVLTQTPSPVSAAVGGTVTINCQSSQSVYDNNWLAWYQQKLGQPPKLVIYDASKLASGVPSRFKGSGSGTHFTLTISELQCDDSATYYCQGEYSDIWGFGGGTEVVVK
notes: Rabbit monoclonal IgG expressed in HEK cells; also called 25H2 heavy chain / 25K1 light chain
binding result [2]: binds

B10: 18H1/18K1 (antibody, V domains shown)
VH: B1 VH
VL: B1 VL
notes: Rabbit monoclonal IgG expressed in HEK cells; also called 18H1 heavy chain / 18K1 light chain
binding result [1]: binds
